# ± gives the standard error. For part of these data: Variants at the floor of the assay were thinned out.
# B1: glmS ribozyme (parent)
# chain: AUAAAAGCGCCAGAACUACAGAAAUGUAGUUGACGAGGAGGAGGUUUAUCGAAUUUUCGGCGGAUGCCUCCAAA
# How the values were obtained:
# Details in all cases: with glucosamine-6-phosphate
# glucosamine-6-phosphate [1] = variants of: B1; assay: kcat; higher = faster cleavage; RNA array
# Method in brief: (§1)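 kcat and KM were obtained from weighted Michaelis–Menten fits across concentrations of kobs values. Those came from one- or two-exponential decay fits to per-tile medians normalised to baseline and to non-cleaving reference variants. The variants were barcoded ribozymes transcribed in situ by E. coli RNA polymerase on sequenced MiSeq chips and tracked through a hybridised Cy3 probe at 37 °C, with 40 μM to 10 mM glucosamine-6-phosphate in HEPES/KCl/Mg(OAc)2 buffer flowed in.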
# glucosamine-6-phosphate [2] = variants of: B1; assay: KM; higher = weaker cofactor use; RNA array
# Method in brief: as §1
# glucosamine-6-phosphate [3] = variants of: B1; assay: self-cleavage kobs at 40 uM GlcN6P; higher = faster cleavage; RNA array
# Method in brief: as §1
# glucosamine-6-phosphate [4] = variants of: B1; assay: self-cleavage kobs at 160 uM GlcN6P; higher = faster cleavage; RNA array
# Method in brief: as §1
# glucosamine-6-phosphate [5] = variants of: B1; assay: self-cleavage kobs at 640 uM GlcN6P; higher = faster cleavage; RNA array
# Method in brief: as §1
# glucosamine-6-phosphate [6] = variants of: B1; assay: self-cleavage kobs at 2500 uM GlcN6P; higher = faster cleavage; RNA array
# Method in brief: as §1
# glucosamine-6-phosphate [7] = variants of: B1; assay: self-cleavage kobs at 10000 uM GlcN6P; higher = faster cleavage; RNA array
# Method in brief: as §1
Variant,kcat (glucosamine-6-phosphate [1]) [s⁻¹],KM (glucosamine-6-phosphate [2]) [µM],self-cleavage kobs at 40 uM GlcN6P (glucosamine-6-phosphate [3]) [s⁻¹],self-cleavage kobs at 160 uM GlcN6P (glucosamine-6-phosphate [4]) [s⁻¹],self-cleavage kobs at 640 uM GlcN6P (glucosamine-6-phosphate [5]) [s⁻¹],self-cleavage kobs at 2500 uM GlcN6P (glucosamine-6-phosphate [6]) [s⁻¹],self-cleavage kobs at 10000 uM GlcN6P (glucosamine-6-phosphate [7]) [s⁻¹]
A14C A15C,0.00204 ± 0.00038,2740 ± 760,4.27e-05 ± 6.9e-06,0.000103 ± 1.6e-05,0.000339 ± 4.6e-05,0.0011 ± 0.00014,0.00157 ± 0.00017
A14C A15G,0.00631 ± 0.0025,6250 ± 2900,5.61e-05 ± 7.9e-06,0.000127 ± 1.8e-05,0.000597 ± 6.6e-05,0.00192 ± 0.00022,0.00369 ± 0.00064
G13U A48U,< 1e-05,,,< 1e-05,,,
G13U A14G C61A,1.4e-05 ± 5.4e-06,,< 1e-05,,,,
A14G A15U U30G,0.0196 ± 0.0037,263 ± 69,0.00266 ± 0.00038,0.00652 ± 0.0021,0.0127 ± 0.0037,0.0232 ± 0.0085,
A14C U54G,0.00619 ± 0.0017,3310 ± 1300,0.00011 ± 1.7e-05,0.000219 ± 3.6e-05,0.00107 ± 0.00016,0.00296 ± 0.00041,0.00448 ± 0.00056
G13C U56G,0.000107 ± 9.4e-06,2860 ± 820,,,,5.37e-05 ± 1.7e-05,8.26e-05 ± 1.2e-05
A14G C68A,9.34e-05 ± 1.3e-05,254 ± 120,,2.91e-05 ± 1.3e-05,7.66e-05 ± 1.6e-05,0.000105 ± 3.4e-05,7.77e-05 ± 2.1e-05
A14G C68G,0.000237 ± 2.5e-05,590 ± 180,3.33e-05 ± 1.1e-05,4.57e-05 ± 1.1e-05,0.000123 ± 1.6e-05,0.000181 ± 2.1e-05,0.000235 ± 2.4e-05
G13C A48G,< 1e-05,,,,,< 1e-05,< 1e-05
A14G G66C,0.00168 ± 6.5e-05,1410 ± 110,4.79e-05 ± 9.1e-06,,0.000484 ± 0.00012,0.00114 ± 0.00025,0.00147 ± 0.00015
A14G G32U,0.00512 ± 0.001,5710 ± 1400,4.82e-05 ± 7.9e-06,0.000137 ± 1.8e-05,0.000476 ± 5.1e-05,0.00158 ± 0.00017,0.00329 ± 0.0004
G13U C70G,4.04e-05 ± 3e-06,,,,4.63e-05 ± 9.7e-06,3.94e-05 ± 6.3e-06,3.71e-05 ± 6.7e-06
A14G A39C,0.0183 ± 0.0021,3470 ± 520,0.000225 ± 3.6e-05,0.000699 ± 0.00017,0.00281 ± 0.00047,0.00921 ± 0.0025,0.0134 ± 0.0019

# Source: the supplement of paper PMC7125110
